According to paper PMC8289115, “Liquid–liquid phase separation of full-length prion protein initiates conformational conversion in vitro” (The Journal of Biological Chemistry, 2021):

Molecular target: the molecule itself
Assay: SDS-PAGE and Western blotting of aged gels collected by centrifugation

B1: full-length human recombinant prion protein (residues 23-231) (natural protein)
chain: not shown
notes: also called rPrP; hu-PrP; source: E. coli DH5α, purified
binding result: binds
